From publication PMC11643828, “Tumor-Targeted Cell-Penetrating Peptides Reveal That Monomethyl Auristatin E Temporally Modulates the Tumor Immune Microenvironment” (Molecules, 2024)
*1 amine or outer side, *2 acyl side, *3 side chain or, on linkers, in order; H or OH if unused. Where a SMILES comes first, the peptide text is derived from it. Bridges are numbered along the chain shown (N, C = ends). Roman numbers before positions name the chains, in order. [ ]: non-standard residue; d: D form. The star is where a group is joined. X2 = O=C(CCCCCN1C(=O)CC([*:2])C1=O)NCCOCCOCCOCCOCCOCCOCCOCCOCCC(=O)[*:1]; Hexanoyl(6-succinimido-3yl) = O=C1CC([*:1])C(=O)N1CCCCCC(=O)[*:2]; Dolaproine = CO[C@@H]([C@@H]1CCCN1)[C@@H](C)C(=O)O; Dil = CC[C@H](C)[C@H](NC)[C@@H](CC(=O)O)OC; PABC = O=C(OCc1ccc(N[*:1])cc1)[*:2]; X1 = C[C@@H](N*)[C@@H](O)c1ccccc1; Cit = NC(=O)NCCC[C@H](N)C(=O)O; NMeV = CN[C@H](C(=O)O)C(C)C; AEA = NCCOCC(=O)O

Legend:
tubulin = conditions: cited from earlier work
Source text: In the progression of cancers, a matrix metalloproteinase (MMP) remodeling of the extracellular tumor environment is essential for invasion and metastases. The fundamental role that MMPs play in tumor spread has made them a focus for developing new cancer therapies. While inhibitors to MMPs have been developed, pharmacologically blocking MMPs has not proven effective in patients. Alternative to enzymatic inhibition, tumor MMP activity can be therapeutically co-opted for targeting drug delivery. An example of this strategy involves cloaking cell-penetrating peptide–drug c ...

[1] = Tissue drug measurement (MMAE biodistribution) after IV cRGD-ACPP-MMAE; format: in vivo; conditions: mice with HCT116 xenografts, 10 nmoles IV
Description: To determine tissue specificity and the kinetics of ACPP targeting in human and murine tumor model systems, we used complementary approaches, measuring drug concentrations in harvested tissues and non-invasive fluorescence whole-animal imaging. First, the pharmacokinetics of cRGD-ACPP-MMAE drug accumulation were measured in tumor and normal tissues from mice with human HCT116 xenografts. Tumor-bearing mice were intravenously (IV) injected with cRGD-ACPP-MMAE (Figure 3A). Blood, tumor, and normal tissues (heart, kidney, liver, and muscle) were collected 2, 6, and 24 h after IV injection and assayed for MMAE by LC–MS/MS (Figure 3C). […] To determine the spatial specificity of ACPP drug delivery, normal muscle tissue adjacent to the tumor xenograft was harvested.
Mice with established subcutaneous HCT116 tumors were intravenously injected through the tail vein with 10 nmoles of cRGD-ACPP-MMAE. Tumors, blood, and normal tissues were harvested at indicated time points and homogenized in 10 volumes of PBS with a point sonicator (amplitude range 5–15%). Homogenates were centrifuged ([…], 10 min) with supernatants collected and diluted 2-fold by the addition of 2% acetic acid in acetonitrile, followed by centrifugation (14× g, 10 min). MMAE concentration was measured by using LC–MS/MS with a Luna-2 C18 column (Phenomenex, Torrance, CA, USA) and Agilent Trap XCT mass spectrophotometer (Agilent), with extracted ion currents at 686.4 and 506.4 integrated and combined to improve sensitivity. Ion currents were fitted to a standard curve to determine tissue drug concentrations.

[2] = Mouse body weights in the therapy studies (safety and tolerability); format: in vivo, mice; conditions: LL2 and B16 therapy studies, total 40 nmoles IV, weighed weekly
Description: To assess the safety and tolerability of systemically administered ACPP-MMAE conjugate, mice weights were measured weekly in the two therapy studies above.
(A) Mice bearing LL2 tumors IV injected with vehicle (untreated) or cRGD-ACPP-MMAE (20 nmoles on days 4 and 6). Individual tumor volumes plotted, left panel. Average tumors volumes on day 18 plotted as mean ± SEM, right panel (n = 10 for untreated, n = 6 for cRGD-ACPP-MMAE). Statistical significance calculated using two-tailed t testing. (B) Mice bearing B16 tumors IV injected with vehicle (untreated) or cRGD-ACPP-MMAE (20 nmoles on days 3 and 5). Individual tumor volumes plotted, left panel. Average tumors volumes on day 19 plotted as mean ± SEM, right panel (n = 10 for untreated, n = 6 for cRGD-ACPP-MMAE). Statistical significance calculated using two-tailed t testing. (C) Mouse body weights of mice from experiments in (A,B), plotted as mean fractional body weight ± SEM.
LL2 and B16 tumor cells were injected subcutaneously into the hindlimbs of 6-week-old female C57BL/6 albino mice in 100 µL of 1:1 Growth Factor Reduced Matrigel (BD) and PBS solution. […] Tumor volumes were measured and calculated using the formula as ½ × Length × Width^2. Body weights were measured weekly to assess general animal health.

Compound	potency for mitotic arrest and cell death (tubulin)	tissue with highest MMAE level at 2 h ([1]; 2 h, LC-MS/MS)	tumor MMAE concentration versus peri-tumoral muscle by 6 h ([1]; 6 h, LC-MS/MS)	tumor MMAE versus normal tissues at 24 h post-injection ([1]; 24 h, LC-MS/MS, one-way ANOVA with Tukey)	MMAE concentration in normal tissues after 6 h post-drug delivery ([1]; LC-MS/MS)	tumor MMAE concentration over 24 h post-injection ([1]; LC-MS/MS)	time of peak MMAE concentration in all normal tissues (heart, kidney, liver, muscle) ([1]; tissues collected 2, 6, 24 h, MMAE by LC-MS/MS) [h]	mouse body weights, control versus treated [2]
CC[C@H](C)[C@@H]([C@@H](CC(=O)N1CCC[C@H]1[C@H](OC)[C@@H](C)C(=O)N[C@H](C)[C@@H](O)c1ccccc1)OC)N(C)C(=O)[C@@H](NC(=O)[C@@H](NC)C(C)C)C(C)C [MMAE, Monomethyl auristatin E] (H-[NMeV]V[Dil][Dolaproine]-X1)	single nanomolar range	–	–	–	–	–	–	–
CC[C@H](C)[C@@H]([C@@H](CC(=O)N1CCC[C@H]1[C@H](OC)[C@@H](C)C(=O)N[C@H](C)[C@@H](O)c1ccccc1)OC)N(C)C(=O)[C@@H](NC(=O)[C@H](C(C)C)N(C)C(=O)OCc1ccc(NC(=O)[C@H](CCCNC(N)=O)NC(=O)[C@@H](NC(=O)CCCCCN2C(=O)CC(SC[C@@H](NC(=O)[C@@H](CCCNC(=N)N)NC(=O)[C@@H](CCCNC(=N)N)NC(=O)[C@@H](CCCNC(=N)N)NC(=O)[C@@H](CCCNC(=N)N)NC(=O)[C@@H](CCCNC(=N)N)NC(=O)[C@@H](CCCNC(=N)N)NC(=O)[C@@H](CCCNC(=N)N)NC(=O)[C@@H](CCCNC(=N)N)NC(=O)[C@@H](CCCNC(=N)N)NC(=O)CNC(=O)[C@H](C)NC(=O)[C@H](CSC)NC(=O)CNC(=O)[C@H](CC(C)C)NC(=O)[C@@H]3CCCN3C(=O)COCCNC(=O)[C@@H](CCC(=O)O)NC(=O)[C@@H](CCC(=O)O)NC(=O)[C@@H](CCC(=O)O)NC(=O)[C@@H](CCC(=O)O)NC(=O)[C@@H](CCC(=O)O)NC(=O)[C@@H](CCC(=O)O)NC(=O)[C@@H](CCC(=O)O)NC(=O)[C@@H](CCC(=O)O)NC(=O)[C@@H](CCC(=O)O)NC(=O)CCOCCOCCOCCOCCOCCOCCOCCOCCNC(=O)CCCCCN3C(=O)CC(SC[C@@H]4NC(=O)[C@@H](Cc5ccccc5)NC(=O)[C@H](CC(=O)O)NC(=O)CNC(=O)[C@H](CCCNC(=N)N)NC4=O)C3=O)C(N)=O)C2=O)C(C)C)cc1)C(C)C (some centres unmarked) [cRGD-ACPP-MMAE, cyclo(RGD)fc-MC-HN-peg8-e9-oPLGC(Me)AG-r9-c-(MC-VC-PABC-MMAE)-CONH2] (I: [dE][dE][dE][dE][dE][dE][dE][dE][dE][AEA]PLGC(Me)AG[dR][dR][dR][dR][dR][dR][dR][dR][dR][dC]-NH2 / II: V[Cit][PABC][NMeV]V[Dil][Dolaproine]-X1 / III: cyclo(RGD[dF]C); linker I:26-II:N via Hexanoyl(6-succinimido-3yl); linker I:N-III:5 via X2)	–	the kidneys had the highest levels of MMAE	higher than the surrounding normal muscle tissue	significantly higher than all normal tissues assayed	rapid decrease	remained relatively constant	2	no significant difference
